# From patent publication US20040053276A1 (published 2004)
# [ ]: non-standard residue; d: D form. pGlu = O=C1CC[C@@H](C(=O)O)N1
# B1: human DRL90h-FLAG fusion protein, 7.1 kDa molecule cleaved at the furin cleavage site (other)
# chain: [pGlu]DRPSKPGFPDEPMREYMHHLLALEHRAEEQFLEHWLNPHCKPHCDRNRIHPVVDYKDDDDK
# modifications: also: a pair of intramolecular disulfide bonds
# notes: C-terminal processing product of the COS-7 DRL90h-FLAG fusion; The FLAG tail is inferred from detection and purification with anti-FLAG antibody; also called major component of the human DRL90 gene product
# Legend:
# [1] = target: the molecule itself; test: non-reducing versus reducing SDS-PAGE and anti-FLAG Western blot; disulfide-linked dimer of the cleaved form
# Method: (§1) Transfection was carried out using 1 µg/well of the pDRL90h-FLAG DNA constructed in Example 3 and Effectene (Qiagen). Twenty-four hours after the transfection, the medium was replaced with serum-free DMEM medium supplemented with 1 ml of 0.1 mM pABSF (Wako Purechemical Industries) and 0.05% CHAPS (Dojin Chemical). Then, the cells were cultured further for 48 hr. The culture supernatant was transferred into Eppendorf sample tubes and centrifuged. After removal of floating cells, the supernatant was concentrated to about 1/10 in volume with Centricon YM-3 ultrafiltration membrane (Millipore). An equal volume of Tricine SDS-PAGE sample buffer (TEFCO) was added to the resultant concentrated culture supernatant. With respect to the cells, they were washed in 1 ml of PBS (Gibco BRL) twice and then 500 l of Tricine SDS-PAGE sample buffer was added thereto. […] After blocking the nitrocellulose filter with PBS containing 0.1% Tween 20 and 50% Block Ace (Snow Brand Milk Products), human DRL90-FLAG fusion protein was detected with antibodies. […] For luminescence, ECL Western Blotting Kit (Amersham Pharmacia Biotech) was used. Chemiluminescence was detected with Hyperfilm ECL (Amersham Pharmacia Biotech). […] The fusion protein in cell fractions was detected as a polypeptide of approx. 9.2 kDa under reducing conditions and as a polypeptide of approx. 21 kDa under non-reducing conditions.
# [2] = target: B1; test: non-reducing versus reducing SDS-PAGE and anti-FLAG Western blot; disulfide-linked dimer of the uncleaved and cleaved forms
# Method: as §1
# [3] = target: the molecule itself; test: non-reducing versus reducing SDS-PAGE and anti-FLAG Western blot; disulfide-linked dimer (approx. 21 kDa)
# Method: as §1
Binder,binding result [1],binding result [2],binding result [3]
B1,binds,,
"human DRL90h-FLAG fusion protein, 9.2 kDa molecule not cleaved at the furin cleavage site (other, Expressed in COS-7 cells from pDRL90h-FLAG; It was detected on Western blots after SDS-PAGE; also called human DRL90-FLAG fusion protein) SPILTEKQAKQLLRSRRQDRPSKPGFPDEPMREYMHHLLALEHRAEEQFLEHWLNPHCKPHCDRNRIHPVVDYKDDDDK",,binds,binds
